Test: yeast display, Sf9 membrane polyspecificity reagent, FACS + sequencing; frameworks hold sequencing errors
Procedure, shortened: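 A nanobody's polyreactivity label depends on the gate it was sorted from. Yeast display cells were stained with 10% biotinylated, detergent-solubilized Sf9 membrane reagent for 1 hour at 4 °C, enriched on streptavidin microbeads and sorted by FACS. The low and high (top ~1%) gates were set on anti-HA fluorescence for expression and streptavidin fluorescence for reagent binding.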

Row | Sequence | polyreactivity (PSR sort gate)
1 | QVQLVESGGGLVQAGGSLRLSCAASGRIFRYYAMGWFRQAPGKERELVASISRRGGSTNYADSVKGRFTISRDNAKNTVDLQMNSLKPEDTAVYYCNAENSSPRGLYNYWGQGTQVTVSS | high polyreactivity
2 | QVQLVESGGGLGQAGGSLRLSCAASGFTFWYYGRGWYRQAPGKERELVAAITSSGGRTSYADSVKGRFTISRDNAKNTVYLQMNSLKPEETADYYCAALYSYYSLYDDYDYWGQGTQVTVSS | high polyreactivity
3 | QVQLVESGGGLVQAGGSLRLSCAASGSIFYSYAMGWYRQAPGKERELVAAITSNAGGITRYADSVKGRFTISRDNAKNTVYLQMNSLKPEDTAVYYCAARGHYYTRYWGQGTQVTVSS | high polyreactivity
4 | QVQLVESGGGLVQAGGSLRLSCAASGSILAYYGMGWYRQAPGKEREFVAAISNRGGSTYYADSVKGRFTISRDNAKNTVYLQLNSLKPEDTAVYYCARELYRRVWHHWAYWAAYDYWGQGTQVTVSS | low polyreactivity
5 | QVHLVESGGGLVQAGGSLRLSCAASGFTFDFYAMGWYRQAPGKERELVAAISKNDGTTYYADSVKGRFTISRDNAKNTVYLQLNSLKPEDTAVYYCAAESGYPVYTYVSSGDYWGQGTQVTVSS | low polyreactivity
6 | QVNLVESGGGLVLAGGSLRLSCAASGVTYGNNAMGWYRQAPGKEREFVATISRRGGSTYYADSVMGRFTISRDNAKNTVYLQMNRLKPEDTAVYYCDVDRAGIKFAAGYDYWGQGTQVTVSS | high polyreactivity
7 | QVQLVESGGGLVQAGGSLRLSCAASGFTFKHYAMGWYRQATGKERELVATITRGGSTNYADSVKGRFTISRDNAKNTVYLQMNSLKPEDSAVYYCAAADYVRYPFTRGYIYQGYDYWGQGTQVTVSS | low polyreactivity
8 | QVQLVESGGGLVQAGGSLRLSCAASGSTFGYYAMGWYRQAPGKERELVAVITSGGSTYYADSVKGRFTISRDNAKNTVFLQMNSLKPEDTAVYYCYARVQAVHYGYWGQGTQVTVSS | high polyreactivity
9 | QVQLVESGGGLVQAGGSLRLSCSASGSTFSAYVMGWYRQAPGKERKLVAAITRSGVSTYYADSVKGRFTISRDNAKNTVYLQMNSLKPEDTAVYYCNKRVGFLYKYDYWGQGTQVTVSS | high polyreactivity
10 | QVQLVESGGGLVQAGGSLRLSCAASGSIFYRNAMGWYRQAPGKERELGAAISWSAARTYYADSVKGRFTISRDNAKNTVYLQMNSLKPEDTAVYYCAAYQTSRYKYEYWGQGTQVTVSS | high polyreactivity
11 | QVQLLESGGGLVQAGGSLRLSCPASGRIFGSYAMRSYRKAPGKERDFVAAISRTGGSTYYADSVKGRFTISRDNAKNTVYLQFTSLKPEDTAVYYCAASYRWRFVRGYYWGQGTQVNVSS | high polyreactivity
12 | QVQLVESGGGLVQAGGSLRLSCAASGSIFYSYAMGWYRQAPGKEREFVAAISQLGGSTYYADSVKGRFTISRDNAKNTVYLQMNSLKPEDTAVYSCNAVYRRAQFLYGYDYWGQGTQVTVSS | high polyreactivity
13 | QVQLVESGGGLVQAGGSLRLSCAASGSTCRPYVMGWFRQAPGKERELVAAISWRGGTTYYADSVKGRFTISRDNAKNTVSLQMNSLKPEDTAVYYCAARGDQGVPVARRYDYWGQGSQVTVSS | high polyreactivity
14 | QVQLVESGGGLVQAGGSLRLSCAASGSTFGYYTMGWYRQAPGKERELVAAITWSGGSTYYADSVKGRFTISRDNAKNTVYLQMNSLKPEDTAVYYCADDDYWTPFGYWGQGTQVTVSS | low polyreactivity
15 | QVQLVESGGGLVQAGGSLRLSCAASGITFRGYVMGWYRQAPGKERELVADISRRGGSTYADSVKGRFTISRDNAKNTVYLQMNSLKPEDTAVYYCNAGWRPHNLNQVGYSSYGYYYWGQGTQVTVSS | high polyreactivity
16 | QVQLVESGGGLVQAGGSLRLSCAASGRTFGKYAMGWYRQAPGKESELVAAITNSGGSTYYADSVKGRFTISRDNAKNTVYLQMNSLKPEDTAVYYCNRLGYRGPSKLNHMGYWGQGTQVTVSS | high polyreactivity
17 | QVQLVESGGGLVQAGGSLRLSCAASGSIFGVYTMGWYRQAPGKERELVAAISRNGGSTYYEDSVKGRFTISRDNAKNTVYLQMNSLKPEDTAVYYCATSTSRRYGSRHNYWGQGTQVTVSS | high polyreactivity
18 | QVQLVESVGGLVQAGGSLRLSCAASGRTFARYAMGWERQAPGQERELVAAISRNTGSTYADSVKGRFTISRDNAKNTVSLQMNSLKPEDTAVYYFASSWRGQDPYYRYVGRDYWGQGTQVTVSS | high polyreactivity
19 | QVQLVESGGGLVQAGGSLRLSCAASGRIFVPYVMGWYRQAPGKERELVASISDSDTSTYYADSVKGRFTISRDNAKNTVYVQMNSLKPEDTAVYYCNVDYWGQGTQVTVSS | low polyreactivity
20 | QVQLEESGGGLVQAGGSLRLSCAASGSIFQSYDMGWYRQAPGKERELVAAISWSGSTTYYADSVKGRFTISRDNAKNTVYLQMNSLKPEDTAVYYSAVDSNPPDWWAVIYGYWGQGTQVTVSS | low polyreactivity
21 | QVHLVESGGGIVQAGGRLRLSCAASGLIFYHYAMGWYRQAPGKEREFVAAITVSGGSTYYADSVKGRFTITRDNAKNTVYLQMNSLKPEDSAVYYCNARSVVWWASGDYWGQGTQVTVSS | low polyreactivity
22 | QVQLVESGGGLVQAGGSLRLSCAASGFTFNYYAMGWYRQAPGKEREFVAAISRSAGSTYYADSVKGRFTISRDNAKNTVYLQMNSLKPEDTAVYYCAADPRSKGFYYGYDYWGQGTQVTVSS | high polyreactivity

Row | Sequence | polyreactivity (PSR sort gate)
23 | QVQLVESGGGLVQAGGSLRLSCAASGRIFSTYVMGWYRQAPGKERELVAAITWSGGSTYYADSVKGRFTISRDNAKNTVYLQMNSLKPEDTAVYYCAADEIYRYGYWGQGTLVTVSS | high polyreactivity
24 | QVQLVESGGGLVQAGGSLRLSCAASGFILGYNAMGWYRQAPGKERELVADITFSGGGTNYADSVKGRFTISRDNAKNTVYLQMNSLKPEDTAVYYCNAAAFSQLRVRYDYWGQGTQVTVSS | low polyreactivity
25 | QVQLVESGGGLVQAGGSLRLSCAASGSIFDGSAMGWYRQAPGKERELVASISSGGSTNYADSVKGRFTISRDNAKNTVYLQMNSMKPEDTAVYYCAAEWVWYKWEFEYWGQGTQVSVSS | high polyreactivity
26 | QDQLVESVGGLVQAGGSLRLSCAASGSIFRLYAMGWYRHAPGKERELVAGITSSDGSTYADSVKGRFTISRDNAKNTVYLQMNSLKPEDTAVYYCAARGYVRWYNRYDYWGQGTQVTVSS | low polyreactivity
27 | QVQLVESGGGLVQAGGSLRLSCAASGRIFGGNAMGWYRQAPGKERELVAAISKRGGSTYYADSVKWRFTISRDNAKNTVYLQMNILKPEDTAVYYCAATAYADQGLDYGYWGQGTQVTVSS | high polyreactivity
28 | QVQHVESGGGLVQAGGSLRLSCAASGSIFYYYTMGWYRQAPGKERELVAAITSGGSTYYADSVKGRFTISRDNAKNTVYIQMNSLKPDDTAVYYCAAEYHSFLWDMDYWGQGTQVTVST | high polyreactivity
29 | QVQLVESGGGLVQAGGSLRLSCAASGLIFGTYAMGWYRQAPGKERELVAVISSSGGSTYYADSVKGRFTISRDNAKNTVYLQMNSLKPEDTAVYYCNARAFRQGHFEYDYWGQGTQVTVSS | low polyreactivity
30 | QVQLVESGGGLVQAGGSLRLSCAASGSIFVTNAMGWYRQAPGKERELVAAISVSGGSTYYADSVKGRFTISRDKAKNTVYLQMNSLKPEDTAVYYCNTVRSPPGHDYWGLGTQVTVSS | low polyreactivity
31 | QVQLVESGGGLVQAGGSLRLSCAASGRIFAWNDMGWYRQAPGKERELLPLFWSGGSTYYADSVKGRFTIARDNAKNTGYLQRNSLKPEDTAVYYCNKDSPPITPYDYWGQGTQVTVSS | low polyreactivity
32 | QVQLLESGGGLVQAGGSLRLSCAASGITFEHYAMGWYRPAPGKERELVAAITWSGDSTNYADSVKGRFTISRDNAKNTVYLQMNSLNPEDTAVYYCAAYAYAGLYSGTWGYDYWGQGTQVTVSS | low polyreactivity
33 | QVQLVETGGGLVQAGGSLRLSCAASVRIIWGNAMGWYRQAPGTERELVAALRASGGSTHYADSVKGRFTISRDNAKKTVYFQINSLKPEDTAVYYCIAVKRVGAYWGRSFAYYYWGQGTQVTVSS | high polyreactivity
34 | QVQLVESGGGLVQAGGSLRLSCAASGFTFDTNVRGWYRQAPGKERELVAAITGPGGSTYYADSVKGRFTISRDNAKNTVYLQMNSLNPEDTAVYYCNRVYYRRRLYDYWGQGTQVTVSS | high polyreactivity
35 | QVQLVESGGGLVQAGGSLRLSCAASGFIFQRYAMGCYRQAPGKERELVAAISKGGGNTYYADSVKGRFTISRDNAKKTVYLQMNSLKPEDTAVYYCNAVPRPDHDYWGQGTQVTVSS | high polyreactivity
36 | QVQLVESGGGLVQAGGSLRLICAASGSIRYYAMGWYTQAPGKEREFVAAISRRGSSTNYADSVKGRFTISRDNAKNTVYLQMNSLNPEDTAVYNCAAAARAGLKRYYYWGQGTQVTVSS | high polyreactivity
37 | QVQLVESGGGLVQAGGSLRLSCAASGRIFYLYTMGWYRQAPGKERELVAASTRAGRTYYADSVKGRFTISRDNAKNTVYLQMNSLKPEDTAVYYCAAAFLSRVQGYDSWGQGTQVTVSS | high polyreactivity
38 | QVQLVESGGGLVQAGGSLRLSCAASGFIFQRYAMGWYRQAPGKERELVAAITKSGGSTYYADSVKGRYTISRDNAKNTVYLQMNSLKPEDTAVYYCNAYRYGSYRPHQEDYDYWGQGTQVTVSS | high polyreactivity
39 | QVQLVESGGGLVQAGGSLRLSCAASGRTFRYYTMGWYRQAPGKERELVAVISRSGGNTYYADSVKGRFTISRDNAKNTVYLQMNSLKPEDTAVYYCAAKIALDNDYWGQGTQVTVSS | high polyreactivity
40 | QVQLVESGGGLVQAGGSLRLSCAASGRIFSINAMGWYRQAPGKERELVASISSGGSTKYADSVKGRFTISRDNAKNTVYLQMNSLKPEDTAVYYCAARGRVYRYGYWGQGTQVTVSS | high polyreactivity
41 | QVQLVESGGGLVQAGGSLRLSCAASGFTLGRNAMGWYRQAPGKERELVASISGRGGSSYYADSVKGRFTISRDNAKNTVYLQMNSLKPEDTAVYYCAARGVSGKYYYWGQGTQVTVSS | high polyreactivity
42 | QDQVVESGGGLVQAGGSLRLSCAASGRIFFAYAMGLYRQAAGTERELVAAITSSGNTYYADSVKGRFTISRDNAKNTVFLQINSLKPEDTAVYYCATGYWELRYDYWGQGTQLTVSS | low polyreactivity
43 | QVQLVESGGGLVQAGGSLRLSCAASGSIFTRYAMGWYRQAPGKERELVATISFIGSSTYYADSVKGRFTISRDNAKNTVYLQMNSLKPEDTAVYSCAATGYARQYEYRYDYWGQGTQVTVSS | low polyreactivity

— the nanobody polyreactivity screen of Harvey et al. (2022)
